experiment: protease stability score; higher = more stable; yeast display proteolysis, trypsin and chymotrypsin;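 further: log10 excess protease needed over predicted unfolded state with 0 meaning unfolded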

Compared with “DEHFETVARLMLHALEDNNPEVLRENLDPNARVQVGDQDLTGRDTVVKVAHRLLTEIRIHIQIDSVRNQGDTVEFDAKFRANVNGRPYSVKVVIVYVVRNGRAVHIQVRMDPDFLRKLRK”, “DEHHAAKRLMDNLLQAMRTGDTDTLKKLADPNVRIDVGDKTYHGREQFLQWMKELVKHVDSVHVDIKRFTVDGNNATIDAEARRDVNGNDHSEKVSVVAEVSGDKMHLKEIQYR” is higher in protease stability score: 0.938 for the first, 1.04 for the second.

Going from “DEHHEARKMIKHYFELLNQGNFEEAAKLFDEDAKVHVGDRTVNGREQIHDWFTRMRKQIDEFTVRLTKVEVSNGHVRVDFYYTKNHNGKSKSNSVDMIFQNNNGRIRAKSMQEK” to “DEHHRKEFEDMLRVEQHGNEEQLKRYMDPNARFRYGDKKVHGREEVVRQISKRRHKLRMQYDTWDIKVKGDKITADLKYVEHQNGQPEDVRVNVSIRFHNGKLVEAHRERDK”, the protease stability score rises from -0.085 to -0.001.

Going from “DEHHTQEARKFLENQQTGNETELQKYADPNASAQIGDKRVHGMEKFAHTIRKEVDELRMTIHDVRFDANGEKVIVHVDVQYDHNGRPERATMVVLFKHNNGKATEITARYDK” to “DEHIAKDLHRLAETGNWQELVEQADKDAKAKVGDKTYHGREDLQTLNRQWNEHVDHENLERVTLNPDHLVILFKMQVNGKDFAANVRIRRHNGRVEHIQVDARDDEQKKILHELLS”, the protease stability score rises from 0.411 to 0.657.

First: DEHIDHMYKEILRLLETGNSEEAQKLLDPNVKVVVGDKRYHGREDYARDMVRRIKEMDVQRDFDHVSVHNGKVDADAKQTTNSNGRPSSNTVRITIVQHNGRIHMIKIDSRQ
Second: DEHIEEVATKHLKAQHTNDPKQFRDLADKDVEVEVGDKNIHGREQNANEQKRRRDEWEFEMKIDHISAHDGRAILRVKINYVVNGKPINVDAVIRLHAHNGTIKELSVQVDPDQMREVKS
The protease stability score of the first is lower: 0.041 for the first, 1 for the second.

First: DEHIQKQFQKILEAINQNNPEQFRRLVDKHAQITIGDEVVHGRDDAVRTLEKKMREMKVEIEVDSVNVQGEKLTATLKVELDINGKPNTDTVVVQMRAENGKLKSAHYRVDPTTRRKVKS
Second: DEHKAHRRAQELVEVMKQGDFKRWQEMADPNADVHYGDKRVHGMNEAADVMRQIRNDADHIRVKTYEAKGERIHIDFRVSFNGKQITFDLVVEIRNGTIKTAQFDPDAIRHLES
The protease stability score of the first is lower: -0.179 for the first, 0.5 for the second.

Going from “DEHKEAEELARQLQRVARHNNPDQFAHMLDKDVKIDIGDKTVHGRENARNMMTELVKDYDSLDAKVDSFDVHNGTIDIKMTFSFNHNGKTTTTSVEFRARKHNGHVRIVYIKYG” to “DEHKEAHQFAREMNKALETGDPDRYAQLADPNVKVDIGDKTYKGREDMSQYIEDLLTDADHVSMNIRSIDVQGEKVSLDFEVSNDSNGQQTRRKVKVTAERQGDKLVIVSIKVS”, the protease stability score falls from 0.234 to 0.184.

Compared with “DEHKEASEYIEQAEENMRDNNFRRMMQNADENVKLKYGDKELEGREQVESWANTVQSRADHFEIRVESMTVTGDHISIVLSHIVRHDGRRVKQKIIIIFKVHNGRARIEHIEFK”, “DEHKEREIAERYAQNLTHGNPTEIARQFDPNVKMTVGDKELQGREQVEEALHNFRERVDHHSYDTFTVSNGRVNISAQANVDGKNVKVDVRVVVNNGRVKDVKINPEQWKHVQG” is lower in protease stability score: 0.044 for the first, -0.234 for the second.

Going from “DEHKHAEQHVKELIDALETGDPEKVRKNADEDVSAVYGDTTLQGTDQVVKAVHDIRNRYDSVRVEIKTVHIQNGRVVVTATVVLNQNGKNDTVSANIQLKVDNGRFKLVHDQLG” to “DEHKIAKKLADTVMSLMKTGNFDQLAKQADPNVKIEIGDTTIHGREELVKTQKRLNDQIDHVDVRVNKVQMHGDKVNIDMDFVINVNGKNERRKLTVRAKVHNGRAIITEIRYG”, the protease stability score rises from 0.739 to 1.01.

First: DEHKIATKQMEEFTEAMKRGDEDRMKSNADENVRIEVGDKEVHGQNQFKQTVANILKRVDHIRIKLRDWRNHNGRVDLVYQVNFDHNGRHKNDKYTVRMRIQGDKAKIEHVKAP
Second: DEHKLKEFATRIMEAWEQGDPRKLEELMDPNARYIVGDKTLHGREEAKKRMEEFRKNVDHVEFTSVRAQNGHISITFVANVNGERETRVVDIKVDNGRVKNMDIKHK
The protease stability score of the first is lower: 0.349 for the first, 0.7 for the second.

Compared with “DEHKLQQVFEKFLKAFNTGDRDLARKLMDPNVKLDVGDKTYHGREQAMRWMHQVRQKADHIQVQSMESSGNKATVDIVIEHNGKSTSEVIRLEVENGHFRHVRKDSP”, “DEHKQIREFQKKQQKWWERGNWEELDKMFPPDARMSIGDTTVHGRESIRKTLKDLVDSADSVSVEFKHFKFHNGRAHVDAVLSVDVNGKKVDVKFNANLQVHNGTLFVDEVVRK” is higher in protease stability score: 0.091 for the first, 0.118 for the second.

Compared with “DEHKQQERAEDAVRVMQKGDERRFHEQLDENVRVTIGDREVHGRENAVEMFQEWVKRADHIRVDKLEVSNGVVNAHFEVEHNGQTRHQVMVVTYHNGEIQHMTIDRG”, “DEHKVKEAAERFVRMLEHNDPDTLSKLFDPNVTMQVGDKEYQGRETLMRLVKELKKRVDHIEVKQVHASNGRVNVRMTIQFNGKRFEFTMHIVLHDGRVDTLSLDVRNEEEKRRVDS” is higher in protease stability score: 0.741 for the first, 1.31 for the second.

Going from “DEHKVKEIEDIVRNNDFLKLANMADENARVRYGDKDFHGRERIKTQAQRFETKFDHAEIKSLDVRGNEISVDMVAVFNGRSVRFRMILVVKNGQIKMMEFRATSEKEETKLKEALS” to “DEHKYRKLAEQINKALEDGDSREMMRLMDKDVKARYGDKTVHGRDDARKLFEDRQDHVDKIQVDDYRVDGDDITVVMTYNHNGRTTVQVLVFRLRNGRIKSASVHSQ”, the protease stability score falls from 1.25 to 0.998.

Compared with “DEHLFKRLVDIIKHGNFEELARQADENARVVVGDRTVKGRNEVEELMQRLRQKIDHVQIDHWSRHGDTVTISFVANVNGRRLEFTLMAAFDNGRIHEVVFHSTNEEVTKIMKEILS”, “DEHLHKAVNQLWHAIKTNDPDKVQELADPNVRIQVGDKEIHGREEFAHQVRRTREQMRVRIDIKQVDVQGNKVDIEYDYEYNVNGQPRSDRVTAVFVLHNGKVQRMHIHISEEQLRQQEK” is lower in protease stability score: 1.93 for the first, 0.886 for the second.

Compared with “DEHLLKEAEKHLKQIERGNPDEAVKMVDPNAKFHIGDKTIHGREHWREWVERQVKDQRFKIRLDDMEDHNGKLVLEVTATYDINGKPVTLTVRWEFDIHNGRAQSVRVQVDPKQQEDLKR”, “DEHLNRHLSTVLNILQEGDPKKLLQQFDPNAHFQIGDTHVHGREQMDQQMERERRRARTEVKDYKVDDQGEQLVLHMTFRVDRNGKPKEMQATIKAEVHNGHFKEMKFETDR” is lower in protease stability score: 0.535 for the first, -0.089 for the second.

Compared with “DEHLQEVWENMLRAQENGDPDSFSRLVDPNVDFVYGDQTVHGREQAMTELKRRTDEIRFEIHHVDVRAQNGHIRVRIDQVKEHNGTPHREKTKNTIVADGDKVKSVEVRSDG”, “DEHLQTLVTDLIRAEQNNDEERLKRLMDPNVRAQYGDQTVSGREEIVQKIIHKNREIHFSQEIKSISAHNGRIHVTVEFTEEHNGEPRRDKMHQTIIAHGDQIKEVRVKSDG” is lower in protease stability score: -0.256 for the first, -0.28 for the second.

Compared with “DEHLVEKVEEFLQNLQNNNEEEIQKQVDPNAKIDVGDKTVDGREEANKWAEELKDESRFEIKDVKYESHNGRVRANFTAQVDHNGRPETRKYDITFNWHDGVIKHIDNKTTS”, “DEHLVRLADRLLTAVRHGDEDRWVEQFDPNATVKIGDKELHGRSQIKTELERERDTSRVNVQRFSIEDQGDKAVVDVEYVITKNGRPQKDRAKATYNVNNGRFKNASMQKVS” is lower in protease stability score: 0.403 for the first, -0.413 for the second.

Going from “DEHNAHVLKQAMEAMATGDEKRFVELVDPNARMKVGDKEIKGREDFQEYLTDLHRHARVEVHHIHVNDNGDRFEIDVTQVIEINGRPDTKRMTLEAVAHNGQVKEINLRVPEEEWRRLER” to “DEHNEAVELMKKLWEAARTGDEEELHKQVDKDVRINVGDKELHGNSQAARKIMERAKRVDHVDVKIQEVTHKGDKIVMRVQFRNTHNGRETDSRYVVWFKNSNGRWVFVKIERG”, the protease stability score rises from 0.316 to 1.31.

Compared with “DEHNHKVAEEIFKALTTGDPDKVRENFDKDASLVIGDKTVNGRKQIKEEVQKRKDEMRIDFKNIDIQVSDGKVRVNVRMQVNINGQPVDFTLDAEFDIHNGKAKQVRFEFDEKDKRTLEQ”, “DEHNMKLASRLVRAVQTNDPDQWVRNVDKNVRVQVGDKTVHGREEFHRQMEKKAREMRYEVQMDQVTVHGDKVRIDITERSNVNGRPHHKRAEMIVHVSNGKVQRVEVQDRK” is lower in protease stability score: -0.059 for the first, -0.162 for the second.

From the NTF2 design screens of Basanta et al. (2020)
